Source: paper PMC11910092, “Modulating the complement system through epitope-specific inhibition by complement C3 inhibitors” (The Journal of Biological Chemistry, 2025)

How the values were obtained:
Test in all cases: ELISA; plate coated with 2 ug/ml C3, C3b or recombinant C345C domain overnight at 4 °C; MI3 dilution series in PBST, 37 °C, 1 h; detected with HRP anti-His antibody (HRP anti-VHH antibody for the C345C domain)
Conditions in all cases: both partners purified
complement C3 = molecular target: T1, complement C3 (Homo sapiens (plasma-derived), UniProt P01024)
T1 construct: Bought protein; it works with normal human serum and anti-human detection antibodies; source: bought: Complement Technology (cat#A113)

complement C3b = molecular target: T2, complement C3b (Homo sapiens (plasma-derived), UniProt P01024)
T2 construct: Bought protein; source: bought: Complement Technology (cat#A114)

[1] = molecular target: T3, recombinant C345C domain of C3 and C3b (Homo sapiens)
T3 construct: C345C domain of complement C3; also called C345C domain (recombinant expression); source: HEK293-F, transfected (pCDNA3.1(+)), secreted, purified (Ni-NTA agarose, anion exchange GigaCap Q-650M)
T3 chain: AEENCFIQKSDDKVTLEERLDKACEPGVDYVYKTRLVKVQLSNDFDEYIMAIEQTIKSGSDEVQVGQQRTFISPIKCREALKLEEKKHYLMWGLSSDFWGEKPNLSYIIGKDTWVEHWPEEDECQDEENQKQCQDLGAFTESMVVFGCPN

T1 sequence (P01024 23-667): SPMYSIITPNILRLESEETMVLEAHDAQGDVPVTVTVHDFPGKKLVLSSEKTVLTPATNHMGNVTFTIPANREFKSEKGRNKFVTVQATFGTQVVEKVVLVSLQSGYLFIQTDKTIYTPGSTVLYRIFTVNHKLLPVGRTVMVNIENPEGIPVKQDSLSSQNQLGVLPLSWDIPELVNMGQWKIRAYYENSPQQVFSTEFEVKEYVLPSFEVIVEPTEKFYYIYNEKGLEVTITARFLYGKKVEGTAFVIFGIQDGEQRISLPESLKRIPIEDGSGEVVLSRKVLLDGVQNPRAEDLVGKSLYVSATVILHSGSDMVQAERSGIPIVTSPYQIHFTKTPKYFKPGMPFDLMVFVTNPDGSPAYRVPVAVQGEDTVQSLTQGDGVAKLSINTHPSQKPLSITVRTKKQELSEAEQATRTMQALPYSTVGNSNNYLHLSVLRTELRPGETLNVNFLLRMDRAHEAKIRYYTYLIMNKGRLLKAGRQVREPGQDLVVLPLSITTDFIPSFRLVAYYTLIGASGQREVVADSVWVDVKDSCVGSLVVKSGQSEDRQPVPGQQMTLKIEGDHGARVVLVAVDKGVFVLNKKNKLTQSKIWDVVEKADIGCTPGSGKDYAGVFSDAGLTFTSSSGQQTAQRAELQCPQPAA
T2 sequence (P01024 23-667): as above

EC50 (complement C3): 0.17 nM
EC50 (complement C3b): 0.14 nM
EC50 [1]: 0.19 nM
B1: MI3 (nanobody) (VHH)
VHH: DVQLQESGGGLVQPGGSLRLSCVASGSTFSTYHMGWYRQAPGKQRELIAGITSGGRISYVDSVKGRFNISRDNAKNTVYLQMNTLKPEDTAVYYCNMLGEFAGRPPWGQGTQVTVSS
notes: proprietary nanobody; Provided by Quaerite Biopharm Research; source: HEK293-F, transfected (pCDNA3.1(+)), secreted, purified (Ni-NTA agarose, ion exchange GigaCap Q-650S); not shown: 6xHis (after a GGGGS linker), C-terminal, kept
